From the RNAGym collection of RNA variant scans (doi:10.1073/pnas.2313332121) come the findings set out here.

Sequences and labels used below:
B1: TPR t1 (parent)
chain: GACCAAUCUGCCCUCAGAGCUCGAGAACAUCUUCGGAUGCAGAGGAGGCAGGCUUCGGUGGCGCGAUAGCGCCAACGUCCUCAACCUCCAAUGCAUCCCACCACAUGAUGAUGCCUGAAGAGCCUUGGUUUUUUG

Variants of B1 are the subject of this series. The series is described as follows: polymerase ribozyme fitness, log enrichment relative to wild type (log ratio); higher = more active; in vitro selection for triplet polymerase activity. The method in brief: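 For each subunit of a heterodimeric triplet polymerase ribozyme, a mutant library was built by PCR and transcribed, then taken through a single in vitro selection round in triplicate. Selection involved annealing to a biotinylated primer, the partner subunit and triplets, incubation frozen at −7 °C, gel excision of extended constructs, capture on streptavidin beads and RT-PCR. Genotypes were retained after Illumina sequencing of inputs and outputs only with ≥10 input reads and ≥1 read in each output. Fitness is defined as the logarithm of a genotype's enrichment relative to wild-type enrichment, using inverse-variance-weighted averages across replicates, with the logarithm taken to base 2.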
In the case of GACCAAUCUGCCCUCAGAGCUCGAGAACAUCUUCGGAUGCAGAGGAGGCAGGAUUCGGUGGCGCGAUAGCGCCAACGUCCUCAACCUCCAAUGCAUCCCACCACAUGAUGAUGCCUGAAGAGCCUUGGUCUUUUG, the “polymerase ribozyme fitness (log ratio)” value is 0.592.
With GACCAAUCUGCCCUCAGAGCUCGAGAACAUCUUCGGAUGCAGAGGAGGCAGGAUUCGGUGGCGCGAUAGCGCCAACGUCCUCAACCUCCAAUGCAUCCCACCACAUGAUGAUGCCUGAAGAGCCUUGGUGUUUUG, the “polymerase ribozyme fitness (log ratio)” value was -0.264.
The value for GACCAAUCUGCCCUCAGAGCUCGAGAACAUCUUCGGAUGCAGAGGAGGCAGGGUUCGGUGGCGUGAUAGCGCCAACGUCCUCAACCUCCAAUGCAUCCCACCACAUGAUGAUGCCUGAAGAGCCUUGGUUUUUUG was -0.328; that for GACCAAUCUGCCCUCAGAGCUCGAGAACAUCUUCGGAUGCAGAGGAGGCAGGGUUCGGUGGCGCGAUAGGGCCAACGUCCUCAACCUCCAAUGCAUCCCACCACAUGAUGAUGCGUGAAGAGCCUUGGUUUUUUG was -3.49; that for GACCAAUCUGCCCUCAGAGCUCGAGAACAUCUUCGGAUGCAGAGGAGGCAGGGUUCGGUGGCGUGAUAGCGCCAACGUCCUCAACCUCCAAUGCAUCCCACCACAUGAUGAUGCCUGGAGAGUCUUGGUUUUUUG was -1.6.
Take GACCAAUCUGCCCUCAGAGCUCGAGAACAUCUUCGGAUGCAGAGGAGGCAGGGUUCGGUGGCGCGAUAGCGCCAACGUCCUCAACCUCCCAUGCAUCCCACCACAUGAUGAUGCCUUAAGAGCCUUGGUUUUUUG: the “polymerase ribozyme fitness (log ratio)” value was -3.56.
On to GACCAAUCUGCCCUCAGAGCUCGAGAACAUCUUCGGAUGCAGAGGAGGCAGGAUUCGGUGGCGCGAUAGCGCCAACGUCCUCAACCUCCAAUGCAUCCCACCACAUGAUGAUGCCUGAAGAGCCUUGGUUUAUUG, for which the “polymerase ribozyme fitness (log ratio)” value was -0.786.
As for GACCAAUCUGCCCUCAGAGCUCGAGAACAUCUUCGGAUGCAGAGGAGGCAGGGUUCGGUGGCGCGAUAGCGCCAACGUUCUCAACCUCCAAUGCAUCCCACCACAUGAUGAUGCCUGAAGAGCCUUGGUUUUUUG, the “polymerase ribozyme fitness (log ratio)” value is -1.64.
For GACCAAUCUGCCCUCAGAGCUCGAGAACAUCUUCGGAUGCAGAGGAGGCAGGGUUCGGUGGCGCGAUAGCGGCAACGUCCUCAACCUCCAAUGCAUCCCACCACAUGAUGAUGCCUGAAGAGUCUUGGUUUUUUG, the “polymerase ribozyme fitness (log ratio)” value came out at 0.978.
Take GACCAAUCUGCCCUCAGAGCUCGAGAACAUCUUCGGAUGCAGAGGAGGCAGGGUUCGGUGGCGCGAUAGCGACAACGUCCACAACCUCCAAUGCAUCCCACCACAUGAUGAUGCCUGAACAGGCUUGGUUUUUUG: the “polymerase ribozyme fitness (log ratio)” value is -1.65.
Consider GACCAAUCUGCCCUCAGAGCUCGAGAACAUCUUCGGAUGCAGAGGAGGCAGGGUUCGGUGGCGCGAUAGUGCCAACGCCCUCAACCUCCAAUGCAUCCCACCACAGGAUGAUGCCUGAAGAGCCUUGGUUUUUUG, for which the “polymerase ribozyme fitness (log ratio)” value was -3.34.
As to GACCAAUCUGCCCUCAGAGCUCGAGAACAUCUUCGGAUGCAGAGGAGGCAGGGUUAGGUGGCGCGAUAGCGCCAACGUCCUCAACUUCCAAUGCAGCCCACCACAUGAUGAUGCCUUAAGAGCCUUGGUUUUUUG, the “polymerase ribozyme fitness (log ratio)” value is -3.87.
GACCAAUCUGCCCUCAGAGCUCGAGAACAUCUUCGGAUGCAGAGGAGGCAGGGUUCGGUGGCGCGAUAGCGCCAACGUUCUCAACCUCCAAUGCAUCCCACCACAUGAUGAUGCCUGAAGAACCUUGGUUUUUUG: the “polymerase ribozyme fitness (log ratio)” value is -3.43.
As to GACCAAUCUGCCCUCAGAGCUCGAGAACAUCUUCGGAUGCAGAGGAGGCAGGGUUCGGUGGCGCGAUAGCGCCAACGUCCUCAACAUCCAAUGCAUCCCACCACAUGAUGAUGCCUGAGUAGCCUUGGUUUUUUG, the “polymerase ribozyme fitness (log ratio)” value is -0.713.
GACCAAUCUGCCCUCAGAGCUCGAGAACAUCUUCGGAUGCAGAGGAGGCAGGGUUCGGUGGCGCGAUAGCGCCAACGUCCUCAACCUCCAAUGUAUCCCACCACAUGAUGAUGCCUGAAGAGCCUUGGUUUUUUG: the “polymerase ribozyme fitness (log ratio)” value is -0.473.
As for GACCAAUCUGCCCUCAGAGCUCGAGAACAUCUUCGGAUGCAGAGGAGGCAGGGUUCGGUGGCGCGAUAGCGCCAACGUCCUCAACCUCCAAUGCAUCCCACCACAUGAUGAUGCCUGAGGAGCCUUGUUUUUUUG, the “polymerase ribozyme fitness (log ratio)” value was found to be 0.277.
As to GACCAAUCUGCCCUCAGAGCUCGAGAACAUCUUCGGAUGCAGAGGAGGCAGGGUUCGGUGGCGCGAUAGCGCCAACGUCCUCAACCUCCAAUGCAUCCCACCACCUGAUGAUGCCUGAAGAGCCUUGGUUUUUUG, the “polymerase ribozyme fitness (log ratio)” value is -2.81.
Consider GACCAAUCUGCCCUCAGAGCUCGAGAACAUCUUCGGAUGCAGAGGAGGCAGGGUUCGGUGGCGCGAUAGCGGCAACGUCCUCAACCUCCAAUGCAUCCCACCACAUGAUGAUGCCUGAAGAGCCUUGGUUUUUUG, for which the “polymerase ribozyme fitness (log ratio)” value came out at 0.577.
GACCAAUCUGCCCUCAGAGCUCGAGAACAUCUUCGGAUGCAGAGGAGGCAGGGUUUGGUGGCGCGAUAGCGCCAACGUCCUCAACCUCCAAUGCAUCCCACCACAUGAUGAUGCCUAAAGAGCCUUGGUUUUUUG: the “polymerase ribozyme fitness (log ratio)” value was -1.63.
The value for GACCAAUCUGCCCUCAGAGCUCGAGAACAUCUUCGGAUGCAGAGGAGGCAGGGUUCGGUGGCGCGAUAGCGCCAACGUCCUCAACCUCCAAUGCAUACCACCACAUGAUGAUGCCUGAUGAGUCUUGGUUUUUUG was -4.34.
On to GACCAAUCUGCCCUCAGAGCUCGAGAACAUCUUCGGAUGCAGAGGAGGCAGGGUUCGGUGGCGCGAUAGCGCCAACGUCCUCAACCUCCAAUGCAUACCACCACAUGAUGAUGCCUGAAGAGCCUUGGUUUUUUG, for which the “polymerase ribozyme fitness (log ratio)” value is -5.66.
The value for GACCAAUCUGCCCUCAGAGCUCGAGAACAUCUUCGGAUGCAGAGGAGGCAGGGUUCGGUGGCGCGAUAGCGCCAACGUCCUCAACCUCCAAUGCAUCCCAACACAUGAUGAUGCCUGAAGUGCCUGGGUUUUUUG was -0.329; that for GACCAAUCUGCCCUCAGAGCUCGAGAACAUCUUCGGAUGCAGAGGAGGCAGGGUUCGGUGGCGCGAUAGCGCCAACGUCCUCCACCUCCAAUGCAUCCCACCACAUGAUGAUGCCUGAAGAGCCUUGGUUUUUUG was -1.33.
The value for GACCAAUCUGCCCUCAGAGCUCGAGAACAUCUUCGGAUGCAGAGGAGGCAGGGUUCGGUGGCGCGAUAGGGCCAACGUCCCCAACCUCCAAUGGAUCCCACCACAUGAUGAUGCCUGAAGCGCCUUGGUUUUUUG was -7.53; that for GACCAAUCUGCCCUCAGAGCUCGAGAACAUCUUCGGAUGCAGAGGAGGCAGGGUUCGGUGGCGCGAUAGCGCCAACGUCCUCAACCUCCCAUGCAUCCCACCACAUGAUGAUGCCUGAAGAGCCUUGGUUUUUUG was -2.02; that for GACCAAUCUGCCCUCAGAGCUCGAGAACAUCUUCGGAUGCAGAGGAGGCAGGGUUCGGUGGCGCGAUAGCGCCAACGUCCUCAACCUCCAAUGAAUCCCACCACAUGAUGAUGCCUGAAGAGCCUUGGUUUAUUG was -1.31.
Regarding GACCAAUCUGCCCUCAGAGCUCGAGAACAUCUUCGGAUGCAGAGGAGGCAGGGUUCGGUGGCGCGAUAGCGCCGACGUCCUCAACCUCCAAUGCAUCCCACCACAUGAUGAUGCCUGAAGAGCCUUGGUUUUUUG, the “polymerase ribozyme fitness (log ratio)” value was -1.52.
As to GACCAAUCUGCCCUCAGAGCUCGAGAACAUCUUCGGAUGCAGAGGAGGCAGGGUUCGGUGGCGCGAUAGCGCCGACGUCCUCAACCUCCAAUGCAUCCCACCACAUGAUGAUGCCUAAAGAGCCUUGGUUUUUUG, the “polymerase ribozyme fitness (log ratio)” value was -1.73.
Regarding GACCAAUCUGCCCUCAGAGCUCGAGAACAUCUUCGGAUGCAGAGGAGGCAGGAUUCGGUGGCGCGAUAGCGCCAACGUCCUCAACCUCCAAUGCAUCCCACCACAAGAUGAUGCCUGAAUAGACUUGGUUUUUUG, the “polymerase ribozyme fitness (log ratio)” value turned out to be 0.599.
Regarding GACCAAUCUGCCCUCAGAGCUCGAGAACAUCUUCGGAUGCAGAGGAGGCAGGGUUCGGUGGCGCGAUAGCGCCAACGUCCUCAACCUCCAAUGCAUCGCACCACAUGAUGAUGCCUGAAGAGCCUUGGUUUUUUG, the “polymerase ribozyme fitness (log ratio)” value was -5.63.
With GACCAAUCUGCCCUCAGAGCUCGAGAACAUCUUCGGAUGCAGAGGAGGCAGGGUUCGGUGGCGCGAUAGCGCCAACGUCCUCAACCUCCAUUGCAUCCCACCACAUGAUGAUGCCUGAAGAGCCUUGGUUUUUUG, the “polymerase ribozyme fitness (log ratio)” value is -1.68.
For the variant GACCAAUCUGCCCUCAGAGCUCGAGAACAUCUUCGGAUGCAGAGGAGGCAGGGUUCGGUGGCGCGAUAGCGCAAACGUCCUCAACCUCCAAUGCAUCCCACAACAUGAUGAUGCCUGAAGAGCCUUGCUUUUUUG, the “polymerase ribozyme fitness (log ratio)” value is -4.69.
For the variant GACCAAUCUGCCCUCAGAGCUCGAGAACAUCUUCGGAUGCAGAGGAGGCAGGGUUCGGUGGCGCGAUAGCGCCAACGUCUUCAACCUCCAAUGCAUCCCACCACAUGAUGAUGCCUGAAGAGCCUUGCUUUUUUG, the “polymerase ribozyme fitness (log ratio)” value is -2.66.
The value for GACCAAUCUGCCCUCAGAGCUCGAGAACAUCUUCGGAUGCAGAGGAGGCAGGGUUCGGUGGCGCGAUAGUGCCAACGUCCUCAACUUCCAAUGCAUCCCACCACAUGAUGAUGCCUGAGGAGCCUUGGUUUUUUG was -0.0477; that for GACCAAUCUGCCCUCAGAGCUCGAGAACAUCUUCGGAUGCAGAGGAGGCAGGGUUCGGUGGCGCGAUAGCGCCAAGGUCCUCAACCUCCAAUGCAUCCCUCCACAUGAUGAUGCCUGAAGAGCCUUGGUUUUUUG was -0.651.
The value for GACCAAUCUGCCCUCAGAGCUCGAGAACAUCUUCGGAUGCAGAGGAGGCAGGGUUCGGUGGUGCGAUAGCGCCAACGUCCUCAACCUCCAAUGCAUCCCACCACAUGAUGAUGCCUGAAGAGCCUUGGUUUUUUG was -0.0991; that for GACCAAUCUGCCCUCAGAGCUCGAGAACAUCUUCGGAUGCAGAGGAGGCAGGGUUCGGUGGAGCGAUAGCGCCAACGUCCUCAACCUCCAAUGCAUCCCACCACAUGAUGAUGCCUGAAGAGCCUUGGUUUUUUG was -1.3; that for GACCAAUCUGCCCUCAGAGCUCGAGAACAUCUUCGGAUGCAGAGGAGGCAGGAUUCGGUGGCGCGAUAGCGCCAACGUCCUCAACCUCCAAUGCAACCCACCACAAGAUGAUGCCUGAAAAGCCUUGGUUUUUUG was 0.0353.
In the case of GACCAAUCUGCCCUCAGAGCUCGAGAACAUCUUCGGAUGCAGAGGAGGCAGGGUUCGGUGGCGCGAUAGCGCCAACGUCCUCAACCUCCAAUGCAUCCCACUACAUGAUGAAGCCUGAAUAGCCUUGGUUUUUUG, the “polymerase ribozyme fitness (log ratio)” value was -4.93.
With GACCAAUCUGCCCUCAGAGCUCGAGAACAUCUUCGGAUGCAGAGGAGGCAGGGUUGGGUGGCGCGAUAGCGCAAACGUCCUCACCCUCCAAUGCAUCCCACCACAUGAUGAUGCCUGAAGAGCCUUGGUUUUUUG, the “polymerase ribozyme fitness (log ratio)” value is -2.01.
As for GACCAAUCUGCCCUCAGAGCUCGAGAACAUCUUCGGAUGCAGAGGAGGCAGGGUUCGGUGGCGUGAUAGCGCCAACGUCCUCAACCUCCAAUGCAUCCCACCACAUGAUUAUGCCUGAAGAGCCUUGAUUUUAUG, the “polymerase ribozyme fitness (log ratio)” value is -5.27.
GACCAAUCUGCCCUCAGAGCUCGAGAACAUCUUCGGAUGCAGAGGAGGCAGGGUUCGGUGGCGCGAUAGCGCCAUCGUCCUCAACCUACAAUGCAUCCCACCACAUGAUGAUGCCUGAAGAGCCUUGGUUUUUUG: the “polymerase ribozyme fitness (log ratio)” value was -0.918.
